Data reported in patent US20040181042A1 (MEDICAL AND BIOLOGICAL LABORATORIES, published 2004).

Biological target: T1, aggregated Aβ in plaques of the cerebral cortex of a patient with Alzheimer's disease (human (brain of a patient with …, UniProt P05067 672-713))
T1 construct: Tissue section fixed in 4% formaldehyde, embedded in paraffin, pre-treated with formic acid; also called neurotic plaques
Assay: immunolabeling of sections of Alzheimer's disease cerebral cortex
Description: A section of the cerebral cortex of the brain of a patient with Alzheimer's disease was fixed in 4% formaldehyde and embedded in paraffin, then pre-treated with formic acid. […] Arrows indicate vessels in the serial sections.

T1 sequence (P05067 672-713): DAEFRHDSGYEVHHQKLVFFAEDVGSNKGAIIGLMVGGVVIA

B1: antibody 4396C (antibody, V domains shown)
VH: EVQLQQSGPELVKTGASVKISCKASGYSFTGYYMHWVKQSHGKSLEWIGYISCYNGATSYNQKFKGKATFTVDTSSSTAYMQFNSLTSEDSAVYYCARGANWVFDYWGQGTTLTVSS
VL: QAVVTQESALTTSPGGTVILTCRSSTGAVTTSNYANWVQEKPDHLFTGLIGGTSNRAPGVPVRFSGSLIGDKAALTITGAQTEDDAMYFCALWYSTHYVFGGGTKVTVLG
binding result: no binding
